# Source: PMC10658506
# T1: yeast-displayed IL-11 L57P (human)
# T1 sequence (P20809 22-199 with L57P, looked up): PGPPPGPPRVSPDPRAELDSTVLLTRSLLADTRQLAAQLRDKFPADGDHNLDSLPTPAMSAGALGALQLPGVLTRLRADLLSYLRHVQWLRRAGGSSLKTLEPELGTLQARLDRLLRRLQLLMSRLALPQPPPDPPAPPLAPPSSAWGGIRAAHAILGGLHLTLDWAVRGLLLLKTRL
# T2: human gp130-Fc, P40189
# T2 chain: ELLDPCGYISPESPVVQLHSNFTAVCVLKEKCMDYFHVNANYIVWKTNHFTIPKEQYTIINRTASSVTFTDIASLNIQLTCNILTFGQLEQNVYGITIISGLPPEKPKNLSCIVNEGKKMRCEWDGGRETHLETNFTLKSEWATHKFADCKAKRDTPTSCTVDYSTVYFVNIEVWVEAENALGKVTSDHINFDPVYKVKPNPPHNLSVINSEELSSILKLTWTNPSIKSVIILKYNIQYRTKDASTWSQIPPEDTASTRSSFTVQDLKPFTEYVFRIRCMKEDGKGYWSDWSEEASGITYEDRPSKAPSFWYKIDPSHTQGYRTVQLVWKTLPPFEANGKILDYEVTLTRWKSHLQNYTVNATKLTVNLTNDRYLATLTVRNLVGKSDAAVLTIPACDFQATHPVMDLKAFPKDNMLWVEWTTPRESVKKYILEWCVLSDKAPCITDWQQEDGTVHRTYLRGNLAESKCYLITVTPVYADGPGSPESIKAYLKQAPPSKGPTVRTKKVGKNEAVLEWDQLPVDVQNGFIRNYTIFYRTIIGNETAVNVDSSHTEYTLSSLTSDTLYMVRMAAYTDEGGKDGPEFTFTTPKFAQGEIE
# Key:
# [1] = target: yeast-displayed IL-11 GIPR (human); assay: flow cytometry on cells; yeast-displayed IL-11 variants incubated with varying concentrations of soluble IL-11R or mIL-11R overnight at room temperature, washed with BPBS; receptor detected with anti-his AF647, display with anti-c-myc; apparent Kd from the fraction bound of the expressing …
# [2] = target: T1, yeast-displayed IL-11 L57P (human); assay: as above
# [3] = target: yeast-displayed IL-11 GIPR S60T (human); assay: as above
# human gp130-Fc, P40189 = target: T2, human gp130-Fc, P40189; assay: flow cytometry on yeast-displayed IL-11; details: chain shown with the change, 100 nM IL-11R added, read off a plot
Kd [1] [nM],fold improvement of apparent Kd over WT IL-11 [1] [fold],Kd [2] [nM],fold improvement in IL-11R binding over WT IL-11 [2] [fold],Kd [3] [nM],"response (Normalized Fluorescence) (human gp130-Fc, P40189; 10 nM gp130-Fc)","response (Normalized Fluorescence) (human gp130-Fc, P40189; 100 nM gp130-Fc)","response (Normalized Fluorescence) (human gp130-Fc, P40189; 1000 nM gp130-Fc)",Binder
0.12,70,0.71,10,–,–,–,–,"soluble human IL-11 receptor extracellular domain, his-tagged (receptor) SPCPQAWGPPGVQYGQPGRSVKLCCPGVTAGDPVSWFRDGEPKLLQGPDSGLGHELVLAQADSTDEGTYICQTLDGALGGTVTLQLGYPPARPVVSCQAADYENFSCTWSPSQISGLPTRYLTSYRKKTVLGADSQRRSPSTGPWPCPQDPLGAARCVVHGAEFWSQYRINVTEVNPLGASTRLLDVSLQSILRPDPPQGLRVESVPGYPRRLRASWTYPASWPCQPHFLLKFRLQYRPAQHPAWSTVEPAGLEEVITDAVAGLPHAVRVSARDFLDAGTWSTWSPEAWGTPSTGTIPKEIPAWGQLHTQPEVEPQVDSPAPPRPSLQPHPRLLDHRDSVEQVAVLA"
1.5,–,–,–,0.29,–,–,–,soluble mouse IL-11 receptor (receptor) SPCPQAWGPPGVQYGQPGRPVMLCCPGVSAGTPVSWFRDGDSRLLQGPDSGLGHRLVLAQVDSPDEGTYVCQTLDGVSGGMVTLKLGFPPARPEVSCQAVDYENFSCTWSPGQVSGLPTRYLTSYRKKTLPGAESQRESPSTGPWPCPQDPLEASRCVVHGAEFWSEYRINVTEVNPLGASTCLLDVRLQSILRPDPPQGLRVESVPGYPRRLHASWTYPASWRRQPHFLLKFRLQYRPAQHPAWSTVEPIGLEEVITDAVAGLPHAVRVSARDFLDAGTWSAWSPEAWGTPSTGPLQDEIPDWSQGHGQQLEAVVAQEDSPAPARPSLQPDPRPLDHRDPLEQVAVLA
–,–,–,–,–,28000,35000,40000,"yeast-displayed wild-type human IL-11, P20809 D19G; T21I; L57P; G62R (protein) PGPPPGPPRVSPDPRAELGSIVLLTRSLLADTRQLAAQLRDKFPADGDHNLDSLPTPAMSARALGALQLPGVLTRLRADLLSYLRHVQWLRRAGGSSLKTLEPELGTLQARLDRLLRRLQLLMSRLALPQPPPDPPAPPLAPPSSAWGGIRAAHAILGGLHLTLDWAVRGLLLLKTRL"
